Results: paper PMC11508141

Target: T1, DJ-1 protein with the 6X-His tag, Q99497
T1 chain: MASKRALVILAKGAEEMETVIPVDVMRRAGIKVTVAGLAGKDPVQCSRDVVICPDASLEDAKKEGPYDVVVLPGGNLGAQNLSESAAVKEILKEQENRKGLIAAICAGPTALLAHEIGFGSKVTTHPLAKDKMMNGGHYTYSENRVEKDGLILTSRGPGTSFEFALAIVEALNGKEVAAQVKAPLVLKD
Experiment: cross-linking; purified DJ-1 treated with 25 mM DSS at 25 °C for 30 min, with or without P1 or P2, then SDS-PAGE (12% gel)
Conditions: remark: other sources report otherwise

B1: DJ-1 protein with the 6X-His tag, Q99497 1-189 (enzyme)
chain: T1 chain
stoichiometry N: 2
